This is an account of results in the supplement of paper PMC11246515.

The nature of this data set: total protein half-life in vivo (active degradation + dilution); higher = more stable protein.
[1] abbreviates: E. coli NCM3722 delta-hslV, growth: N-lim chemostat, doubling time 6 h.
Where [2] appears, read: E. coli NCM3722 delta-smpB, growth: N-lim chemostat, doubling time 6 h.
[3] abbreviates: wild type E. coli NCM3722, growth: C-lim chemostat, doubling time 6 h.
Where [4] appears, read: wild type E. coli NCM3722, growth: N-lim chemostat, doubling time 6 h.
Setting [5] is: wild type E. coli NCM3722, growth: N-lim chemostat, doubling time 12 h.
[6] abbreviates: wild type E. coli NCM3722, growth: P-lim chemostat, doubling time 6 h.
Where [7] appears, read: wild type E. coli NCM3722, growth: P-lim chemostat, doubling time 12 h.
[8] abbreviates: E. coli NCM3722 delta-clpP delta-lon delta-hslV, growth: N-lim chemostat, doubling time 6 h.
Setting [9] is: E. coli NCM3722 delta-clpP, growth: N-lim chemostat, doubling time 6 h.
The mark [10] stands for this setting: E. coli NCM3722 delta-lon, growth: N-lim chemostat, doubling time 6 h.
[11] abbreviates: wild type E. coli NCM3722, growth: C-lim chemostat, doubling time 3 h.
Where [12] appears, read: wild type E. coli NCM3722, growth: C-lim chemostat, doubling time 12 h.

± gives the standard deviation of the averaged measurements.

As to “MEFAFYICGLIAILATLRVITHTNPVHALLYLIISLLAISGVFFSLGAYFAGALEIIVYAGAIMVLFVFVVMMLNLGGSEIEQERQWLKPQVWIGPAILSAIMLVVIVYAILGVNDQGIDGTPISAKAVGITLFGPYVLAVELASMLLLAGLVVAFHVGREERAGEVLSNRKDDSAKRKTEEHA [P0AFE0]”, the “total protein half-life in vivo” value stood at 4.21 h under setting [1]; 6.02 h under setting [2]; 6.7 h under setting [3]; 6.07 h under setting [4]; 11.5 h under setting [5]; 6.02 h under setting [6]. Besides, under setting [7], the “total protein half-life in vivo” value came to 13.8 ± 2.9 h.

For the sequence “MYQPVALFIGLRYMRGRAADRFGRFVSWLSTIGITLGVMALVTVLSVMNGFERELQNNILGLMPQAILSSEHGSLNPQQLPETAVKLDGVNRVAPITTGDVVLQSARSVAVGVMLGIDPAQKDPLTPYLVNVKQTDLEPGKYNVILGEQLASQLGVNRGDQIRVMVPSASQFTPMGRIPSQRLFNVIGTFAANSEVDGYEMLVNIEDASRLMRYPAGNITGWRLWLDEPLKVDSLSQQKLPEGSKWQDWRDRKGELFQAVRMEKNMMGLLLSLIVAVAAFNIITSLGLMVMEKQGEVAILQTQGLTPRQIMMVFMVQGASAGIIGAILGAALGALLASQLNNLMPIIGVLLDGAALPVAIEPLQVIVIALVAMAIALLSTLYPSWRAAATQPAEALRYE [P0ADC3]”, the “total protein half-life in vivo” value under setting [8] was 6.47 ± 0.46 h; the “total protein half-life in vivo” value under setting [9] amounted to 6.838 ± 0.034 h; the “total protein half-life in vivo” value under setting [1] turned out to be 6.01 ± 0.34 h; the “total protein half-life in vivo” value under setting [10] is 6.53 ± 1.3 h; the “total protein half-life in vivo” value under setting [2] was found to be 6.43 ± 0.65 h; the “total protein half-life in vivo” value under setting [11] was determined as 3.11 ± 0.068 h. For the same sequence, the “total protein half-life in vivo” value under setting [3] is 5.78 ± 1.3 h; the “total protein half-life in vivo” value under setting [12] is 12.3 ± 0.59 h; the “total protein half-life in vivo” value under setting [4] worked out at 5.8 ± 0.06 h; the “total protein half-life in vivo” value under setting [5] is 13.1 ± 1.6 h; the “total protein half-life in vivo” value under setting [6] came out at 6.178 ± 0.04 h; the “total protein half-life in vivo” value under setting [7] was determined as 12.3 ± 1.1 h.

“MNLWQQNYDPAGNIWLSSLIASLPILFFFFALIKLKLKGYVAASWTVAIALAVALLFYKMPVANALASVVYGFFYGLWPIAWIIIAAVFVYKISVKTGQFDIIRSSILSITPDQRLQMLIVGFCFGAFLEGAAGFGAPVAITAALLVGLGFKPLYAAGLCLIVNTAPVAFGAMGIPILVAGQVTGIDSFEIGQMVGRQLPFMTIIVLFWIMAIMDGWRGIKETWPAVVVAGGSFAIAQYLSSNFIGPELPDIISSLVSLLCLTLFLKRWQPVRVFRFGDLGASQVDMTLAHTGYTAGQVLRAWTPFLFLTATVTLWSIPPFKALFASGGALYEWVINIPVPYLDKLVARMPPVVSEATAYAAVFKFDWFSATGTAILFAALLSIVWLKMKPSDAISTFGSTLKELALPIYSIGMVLAFAFISNYSGLSSTLALALAHTGHAFTFFSPFLGWLGVFLTGSDTSSNALFAALQATAAQQIGVSDLLLVAANTTGGVTGKMISPQSIAIACAAVGLVGKESDLFRFTVKHSLIFTCIVGVITTLQAYVLTWMIP”: the “total protein half-life in vivo” value stood at 1.79 h under setting [11], 1.93 h under setting [3] and 2.6 ± 0.12 h under setting [12].

On to “MTINFRRNALQLSVAALFSSAFMANAADVPQVKVTVTDKQCEPMTITVNAGKTQFIIQNHSQKALEWEILKGVMVVEERENIAPGFSQKMTANLQPGEYDMTCGLLTNPKGKLIVKGEATADAAQSDALLSLGGAITAYKAYVMAETTQLVTDTKAFTDAIKAGDIEKAKALYAPTRQHYERIEPIAELFSDLDGSIDAREDDYEQKAADPKFTGFHRLEKALFGDNTTKGMDQYAEQLYTDVVDLQKRISELAFPPSKVVGGAAGLIEEVAASKISGEEDRYSHTDLWDFQANVEGSQKIVDLLRPQLQKANPELLAKVDANFKKVDTILAKYRTKDGFETYDKLTDADRNALKGPITALAEDLAQLRGVLGLD [P0AB24]”, for which the “total protein half-life in vivo” value is, setting by setting: under setting [8], 4.39 ± 0.98 h; under setting [9], 4.5 ± 0.11 h; under setting [1], 6.43 ± 1.4 h; under setting [10], 5.84 ± 0.061 h; under setting [2], 4.58 ± 1.5 h; under setting [11], 2.967 ± 0.019 h. Further, the “total protein half-life in vivo” value is, setting by setting: under setting [3], 6.25 ± 0.72 h; under setting [12], 12.8 ± 0.93 h; under setting [4], 5.73 ± 0.24 h; under setting [5], 10.3 ± 0.23 h; under setting [6], 5.01 ± 0.35 h; under setting [7], 12.2 ± 2.8 h.

On to “MTQFNPVDHPHRRYNPLTGQWILVSPHRAKRPWQGAQETPAKQVLPAHDPDCFLCAGNVRVTGDKNPDYTGTYVFTNDFAALMSDTPDAPESHDPLMRCQSARGTSRVICFSPDHSKTLPELSVAALTEIVKTWQEQTAELGKTYPWVQVFENKGAAMGCSNPHPHGQIWANSFLPNEAEREDRLQKEYFAEQKSPMLVDYVQRELADGSRTVVETEHWLAVVPYWAAWPFETLLLPKAHVLRITDLTDAQRSDLALALKKLTSRYDNLFQCSFPYSMGWHGAPFNGEENQHWQLHAHFYPPLLRSATVRKFMVGYEMLAETQRDLTAEQAAERLRAVSDIHFRESGV”, for which the “total protein half-life in vivo” value runs as follows: under setting [8], 3.59 ± 0.68 h; under setting [9], 3.9 ± 0.27 h; under setting [1], 4.65 ± 1 h; under setting [10], 5.17 ± 1 h; under setting [2], 3.41 ± 0.41 h; under setting [11], 3.38 ± 0.37 h. In addition, the “total protein half-life in vivo” value reads like this: under setting [3], 5.51 ± 0.28 h; under setting [12], 12.5 ± 2.4 h; under setting [4], 4.16 ± 0.59 h; under setting [5], 6.05 ± 0.21 h; under setting [6], 5.52 ± 0.24 h; under setting [7], 11.7 ± 0.13 h.

As to “MQVDLLGSAQSAHALHLFHQHSPLVHCMTNDVVQTFTANTLLALGASPAMVIETEEASQFAAIASALLINVGTLTQPRAQAMRAAVEQAKSSQTPWTLDPVAVGALDYRRHFCHELLSFKPAAIRGNASEIMALAGIANGGRGVDTTDAAANAIPAAQTLARETGAIVVVTGEMDYVTDGHRIIGIHGGDPLMTKVVGTGCALSAVVAACCALPGDTLENVASACHWMKQAGERAVARSEGPGSFVPHFLDALWQLTQEVQA”, the “total protein half-life in vivo” value turned out to be 4.08 ± 0.34 h under setting [8]; 3.41 ± 0.17 h under setting [9]; 3.27 ± 0.13 h under setting [1]; 3.94 h under setting [10]; 3.42 ± 0.044 h under setting [2]; 3.01 ± 0.68 h under setting [11]. The “total protein half-life in vivo” value runs as follows: under setting [3], 4.89 ± 1.2 h; under setting [12], 8.48 ± 1 h; under setting [4], 3.4 ± 0.41 h; under setting [5], 5.17 ± 0.24 h; under setting [6], 5.64 ± 0.14 h; under setting [7], 10.3 ± 0.67 h.

Take “MSTPSARTGGSLDAWFKISQRGSTVRQEVVAGLTTFLAMVYSVIVVPGMLGKAGFPPAAVFVATCLVAGLGSIVMGLWANLPLAIGCAISLTAFTAFSLVLGQHISVPVALGAVFLMGVLFTVISATGIRSWILRNLPHGVAHGTGIGIGLFLLLIAANGVGLVIKNPLDGLPVALGDFATFPVIMSLVGLAVIIGLEKLKVPGGILLTIIGISIVGLIFDPNVHFSGVFAMPSLSDENGNSLIGSLDIMGALNPVVLPSVLALVMTAVFDATGTIRAVAGQANLLDKDGQIIDGGKALTTDSMSSVFSGLVGAAPAAVYIESAAGTAAGGKTGLTAITVGVLFLLILFLSPLSYLVPGYATAPALMYVGLLMLSNVAKIDFADFVDAMAGLVTAVFIVLTCNIVTGIMIGFATLVIGRLVSGEWRKLNIGTVVIAVALVTFYAGGWAI [P0AF52]”: the “total protein half-life in vivo” value stood at 6.73 ± 0.3 h under setting [8]; 6.71 ± 0.4 h under setting [9]; 3.4 ± 0.27 h under setting [11]; 6.122 ± 0.032 h under setting [3]; 13.3 ± 3.4 h under setting [12]; 6.45 ± 0.33 h under setting [4]. Also, the “total protein half-life in vivo” value is, setting by setting: under setting [5], 12.2 ± 0.93 h; under setting [6], 6.39 ± 0.3 h; under setting [7], 14.2 ± 1.6 h.
